Results as given in PMC6735865 (Nucleic Acids Research, 2019).

Molecular target: human METTL5, C-terminally His6-tagged (human, UniProt Q9NRN9)
Assay: pull-down

human METTL5, C-terminally His6-tagged, sequence (Q9NRN9 whole entry): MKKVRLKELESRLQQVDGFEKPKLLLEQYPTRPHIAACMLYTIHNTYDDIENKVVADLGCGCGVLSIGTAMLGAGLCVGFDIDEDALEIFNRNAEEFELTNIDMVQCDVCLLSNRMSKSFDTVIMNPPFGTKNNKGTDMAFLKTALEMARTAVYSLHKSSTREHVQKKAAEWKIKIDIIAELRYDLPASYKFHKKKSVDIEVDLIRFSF

binding result: binds
B1: human TRMT112, untagged (natural protein)
chain: MKLLTHNLLSSHVRGVGSRGFPLRLQATEVRICPVEFNPNFVARMIPKVEWSAFLEAADNLRLIQVPKGPVEGYEENEEFLRTMHHLLLEVEVIEGTLQCPESGRMFPISRGIPNMLLSEEETES
